Data: patent US20150110777A1 (PROTHENA BIOSCIENCES, published 2015)

T1: human islet-amyloid polypeptide (IAPP) (human)
T1 construct: also called hIAPP; human IAPP
T1 peptide: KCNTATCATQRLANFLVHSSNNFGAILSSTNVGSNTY

T2: rat IAPP (rat, UniProt P12969 38-74)
T2 peptide (looked up): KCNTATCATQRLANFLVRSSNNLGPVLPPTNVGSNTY

T3: peptide NTATCATQRL, amino acids 3-12 of hIAPP (human)
T3 peptide: NTATCATQRL


Experiments:
[1] = molecular target: T1, human islet-amyloid polypeptide (IAPP); assay: Biacore SPR; affinity compared with murine 6B8 as reference
Procedure: (§1) The affinity of various combinations of 6B8 humanized heavy chains and humanized light chain proteins for hIAPP was analyzed on a Biacore instrument. Biacore analysis was performed by preparing an anti-human CM5 chip following the protocol provided in the kit. The 6B8 antibody was captured such that the maximum binding of rat IAPP would not exceed 20-30 RU. […] Data was blank subtracted to both an irrelevant sensor not containing 6B8 and 0 IAPP concentration to account for the dissociation of 6B8 from the anti-human capture. Data was then analyzed using a global 1:1 fit.

[2] = molecular target: T2, rat IAPP; assay: not stated for the murine antibody; sentence follows the Biacore results
[3] = molecular target: T2, rat IAPP; assay: Biacore SPR; antibody captured on anti-human CM5 chip, rat IAPP flowed over; global 1:1 fit
Procedure: as §1

[4] = molecular target: T2, rat IAPP; assay: Biacore SPR (result of Example 7 told in the description)
Procedure: as §1

[5] = molecular target: T3, peptide NTATCATQRL, amino acids 3-12 of …; assay: epitope mapping against shorter peptides from hIAPP

| fold of the affinity of the murine 6B8 antibody [1] [fold] | fold difference in affinity against the murine 6B8 antibody [2] [fold] | Kd [3] [nM] | koff [3] [s⁻¹] | kon [3] [M⁻¹ s⁻¹] | factor of affinity against the mouse-human chimeric 6B8 antibody [4] [fold] | binding result [5] | Binder |
| --- | --- | --- | --- | --- | --- | --- | --- |
| ≤ 3 | ≤ 3 | 23.4 | 0.00513 | 220000 | – | – | chimeric mouse-human 6B8 antibody (antibody, V domains shown, Mouse 6B8 variable regions with human constant regions; captured on an anti-human chip; also called ch6B8; chimeric 6B8 antibody) VH: QVQLQQPGAELVKPGASVRLSCKASGYTFTSYWMHWVKQRPGQGLEWLGEINPRNGHSNYNEKIRNKATLTADTSSSTVSMQLSSLTSEDSAVYYCTVNRGFYYFFDVWGTGTTVTVSS VL: DVLMTQSPLSLPVSLGDQASISCRSSQSIAHSNGNTYLEWYLQKPGQSPKLLIYKVSNRFSGVPDRFSGSGSGTDFTLKISRVEAEDLGVYYCFQGSHIPRTFGGGTKLEIKR |
| ≤ 3 | ≤ 3 | 31.2 | 0.00832 | 266000 | ≤ 1.5 | – | humanized 6B8 H2L1 antibody (antibody, V domains shown, Only variable regions are tied to the tested antibody; also called h6B8-H2L1; h6B8 H2L1) VH: QVQLQQSGAEVKKPGASVKVSCKASGYTFTSYWMHWVRQRPGQGLEWMGEINPRNGHSNYNEKIRNRVTMTADTSTSTVYMELSSLRSEDTAVYYCTVNRGFYYFFDVWGQGTTVTVSS VL: DVLMTQSPLSLPVTPGEPASISCRSSQSIAHSNGNTYLEWYLQKPGQSPQLLIYKVSNRFSGVPDRFSGSGSGTDFTLKISRVEAEDVGVYYCFQGSHIPRTFGGGTKLEIKR |
| – | – | – | – | – | – | binds | murine 6B8 antibody (LA21-6B8) (antibody, V domains shown, also called m6B8; mouse 6B8) VH: QVQLQQPGAELVKPGASVRLSCKASGYTFTSYWMHWVKQRPGQGLEWLGEINPRNGHSNYNEKIRNKATLTADTSSSTVSMQLSSLTSEDSAVYYCTVNRGFYYFFDVWGTGTTVTVSS VL: DVLMTQSPLSLPVSLGDQASISCRSSQSIAHSNGNTYLEWYLQKPGQSPKLLIYKVSNRFSGVPDRFSGSGSGTDFTLKISRVEAEDLGVYYCFQGSHIPRTFGGGTKLEIKR |
